Data: US20110262430A1 (published 2011)
Positions count from the first letter of the chain named. Names and notes keep the numbering of the source.

B1: CD20-B (anti-CD20 IgG1, wild type constant region, FUT8 deleted CHO DG44) (antibody)
heavy: not shown
light: QIVLSQSPAILSASPGEKVTMTCRASSSVSYIHWFQQKPGSSPKPWIYATSNLASGVPVRFSGSGSGTSYSLTISRVEAEDAATYYCQQWTSNPPTFGGGTKLEIKRTVAAPSVFIFPPSDEQLKSGTASVVCLLNNFYPREAKVQWKVDNALQSGNSQESVTEQDSKDSTYSLSSTLTLSKADYEKHKVYACEVTHQGLSSPVTKSFNRGEC
modifications: The Fc N-glycan is expected to lack fucose (host: FUT8 deleted CHO DG44). The letters cannot carry this.
B2: CD20-A (anti-CD20 IgG1, wild type constant region, CHO-E1a) (antibody)
heavy: not shown
light: B1 light
B3: IGF1R-F (anti-IGF-1R H0L0 IgG1, wild type constant region, FUT8 deleted CHO DG44) (antibody)
heavy: not shown
light: DIVMTQSPLSLPVTPGEPASISCRSSQSIVQSNGDTYLEWYLQKPGQSPQLLIYRVSNRFSGVPDRFSGSGSGTDFTLKISRVEAEDVGVYYCFQGSHVPYTFGQGTKLEIKRTVAAPSVFIFPPSDEQLKSGTASVVCLLNNFYPREAKVQWKVDNALQSGNSQESVTEQDSKDSTYSLSSTLTLSKADYEKHKVYACEVTHQGLSSPVTKSFNRGEC
modifications: N-glycan fucose negative (all oligosaccharide species obtained from the sample are fucose negative)
notes: Same chains as IGF1R-E; differs by the host cell line; Campath leader left out
B4: IGF1R-H (anti-IGF-1R H0L0 IgG1 with S239D/I332E, FUT8 deleted CHO DG44) (antibody)
heavy: not shown
light: B3 light
modifications: N-glycan from FUT8 deleted CHO DG44 host (glycoengineered)
notes: Same chains as IGF1R-G; differs by the host cell line; Campath leader left out
B5: IGF1R-G (anti-IGF-1R H0L0 IgG1 with S239D/I332E, CHO-E1a) (antibody)
heavy: not shown
light: B3 light
notes: Campath leader left out
B6: 6E11 murine monoclonal antibody (antibody, V domains shown)
VH: EVQLQQSGPELVKPGASVRISCKASGYAFTDYYMNWVKQSHGKSLEWVANINPNNGGTNYNQKFKDKATLTVDKSSNTAYMELRSLTSEDTAVYYCARWILYYGRSKWYFDVWGTGTTVTVSS
VL: DVLMTQTPLSLPVSLGDHASISCRSSQSIVQSNGDTYLEWYLQKPGQSPKLLIYRISNRFSGVPDRFSGSGSGTDFTLKISRVEAEDLGVYYCFQGSHVPYTFGGGTKLEIKR
notes: Murine hybridoma antibody; Constant regions are murine IgG1/K or IgG2b/K; also called 6E11 parental; 6E11 mouse parental antibody
B7: 5G4 murine monoclonal antibody (antibody, V domains shown)
VH: EVQLQQSGPELVKPGASVKISCKASGYAFTDYYMNWVKQTHGRSLEWMANINPNTGGTNYNQKFRGKATLTVDKSSTTAYMELRSLTSEDSAVYYCARWILYYGSSRWYFDVWGTGTTVTVSS
VL: B6 VL with H18Q, S28T, Q31H, D35N, R55K, I56V, V90I
notes: Murine hybridoma antibody; murine constant regions not specified
B8: 15D9 murine monoclonal antibody (antibody, V domains shown)
VH: B7 VH with T40S, R43K, R65T, A97T, R107K
VL: B6 VL with H18Q, S28T, Q31H, D35N, I56V, N58Y, V83L, V90I
notes: as for B7
B9: H0L0 humanised antibody (wild type human IgG1) (antibody)
heavy: not shown
light: B3 light
B10: H1L0 IgG1m(AA) (antibody)
heavy: not shown
light: B3 light
notes: also called H10L0 IgG1m(AA) (as misprinted in several captions)
B11: H1L0 humanised antibody (wild type human IgG1) (antibody)
heavy: not shown
light: B3 light
B12: H0L0 IgG1m(AA) (antibody)
heavy: not shown
light: B3 light

Biological target: T1, His-tagged FcγRIIIa (V variant) extracellular domain (Heterogeneously glycosylated.)
T1 construct: also called FcγRIIIa (Val); FcγRIIIa (Val variant)
Assay: Biacore T100, His-tagged FcγRIIIa captured on anti-polyhistidine antibody, antibody injected 2-512 nM, 25°C, Bivalent model
Method: (§1) Qiagen anti-polyhistidine antibody (Cat No. 34670) was immobilised on CM5 biosensor chip using standard NHS/EDC activation, the antibody was diluted to 50 ug/ml in acetate pH4.0 buffer and passed over the activated surface for 20 minutes at 5 ul/minute, the surface was then blocked with ethanolamine. Prior to use the chip was conditioned by performing several regeneration steps using 100 mM phosphoric acid.
(§2) For analysis of the interaction of the FcγRIIIa with various antibody constructs, the poly-histidine tagged receptors were captured to around 20 RU's. […] Regeneration was carried out using 100 mM phosphoric acid following each antibody/buffer injection. The run was carried out using HBS-EP buffer and carried out at 25° C. on a T100 Biacore machine. The data was analysed using the analysis software inherent to the machine using the 1:1 and Bivalent models.

T1 sequence (chain, as listed by the source mutant limits assumed): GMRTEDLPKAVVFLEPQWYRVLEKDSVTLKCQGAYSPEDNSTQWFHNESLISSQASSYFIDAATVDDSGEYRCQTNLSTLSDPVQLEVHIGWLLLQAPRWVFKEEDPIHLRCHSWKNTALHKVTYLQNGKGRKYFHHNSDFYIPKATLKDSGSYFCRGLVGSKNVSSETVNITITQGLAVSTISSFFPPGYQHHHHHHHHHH

Row | Kd [nM] | Binder
1 | 74.1 | B1
2 | 274 | B2
3 | 146 | B3
4 | 2.7 | B4
5 | 68.8 | B5

Biological target: T2, His-tagged FcγRIIIa (F variant) extracellular domain (Heterogeneously glycosylated.)
T2 construct: also called FcγRIIIa (Phe); FcγRIIIa (Phe variant)
Assay: as above
Method: as §1, §2

T2 sequence (chain, as listed by the source mutant limits assumed): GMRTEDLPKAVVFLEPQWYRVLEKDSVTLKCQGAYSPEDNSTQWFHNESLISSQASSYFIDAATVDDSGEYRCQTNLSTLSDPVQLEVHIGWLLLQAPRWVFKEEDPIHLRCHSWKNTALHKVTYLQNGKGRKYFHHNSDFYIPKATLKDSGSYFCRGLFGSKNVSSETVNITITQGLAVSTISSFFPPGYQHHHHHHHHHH

Row | Kd [nM] | Binder
6 | 75.6 | B1
7 | 78.2 | B2
8 | 131 | B3
9 | 51.7 | B4
10 | 88.9 | B5

Biological target: T3, Cynomolgus macaque monkey IGF-1R-Fc fusion protein (cynomolgus macaque monkey (Macaca …))
T3 construct: The entry begins with the native signal peptide; also called recombinant Cynomolgus macaque IGF-1R; recombinant cynomolgus macaque IGF-1R
Assay: binding ELISA: plate coated with recombinant cynomolgus macaque IGF-1R-Fc, antibody titrated, anti-mouse Ig-HRP detection, OD 450nm
Method: (§3) 96 well ELISA plates were coated overnight with recombinant Cynomolgus macaque IGF-1R (see Example 4) at 1-2 μg/ml and blocked with 4% BSA/PBS. Purified anti-hIGF-1R antibodies were added and incubated for 1 hour at room temperature. The plates were washed in TBST and HRP conjugated anti mouse Ig (DAKO #P0260) was added to each well at 0.6-1.0 μg/ml. Plates were incubated for 1 hour at room temperature, washed with TBST and developed with OPD substrate (Sigma P9187) or TMB substrate (Sigma T8665). […] For antibodies containing a human IgG1/Cκ constant region, the HRP conjugated anti mouse Ig detection antibody was substituted with a goat anti-human Kappa Light Chains peroxidase conjugate (Sigma, A7164)

T3 sequence (chain, as listed by the source limits assumed): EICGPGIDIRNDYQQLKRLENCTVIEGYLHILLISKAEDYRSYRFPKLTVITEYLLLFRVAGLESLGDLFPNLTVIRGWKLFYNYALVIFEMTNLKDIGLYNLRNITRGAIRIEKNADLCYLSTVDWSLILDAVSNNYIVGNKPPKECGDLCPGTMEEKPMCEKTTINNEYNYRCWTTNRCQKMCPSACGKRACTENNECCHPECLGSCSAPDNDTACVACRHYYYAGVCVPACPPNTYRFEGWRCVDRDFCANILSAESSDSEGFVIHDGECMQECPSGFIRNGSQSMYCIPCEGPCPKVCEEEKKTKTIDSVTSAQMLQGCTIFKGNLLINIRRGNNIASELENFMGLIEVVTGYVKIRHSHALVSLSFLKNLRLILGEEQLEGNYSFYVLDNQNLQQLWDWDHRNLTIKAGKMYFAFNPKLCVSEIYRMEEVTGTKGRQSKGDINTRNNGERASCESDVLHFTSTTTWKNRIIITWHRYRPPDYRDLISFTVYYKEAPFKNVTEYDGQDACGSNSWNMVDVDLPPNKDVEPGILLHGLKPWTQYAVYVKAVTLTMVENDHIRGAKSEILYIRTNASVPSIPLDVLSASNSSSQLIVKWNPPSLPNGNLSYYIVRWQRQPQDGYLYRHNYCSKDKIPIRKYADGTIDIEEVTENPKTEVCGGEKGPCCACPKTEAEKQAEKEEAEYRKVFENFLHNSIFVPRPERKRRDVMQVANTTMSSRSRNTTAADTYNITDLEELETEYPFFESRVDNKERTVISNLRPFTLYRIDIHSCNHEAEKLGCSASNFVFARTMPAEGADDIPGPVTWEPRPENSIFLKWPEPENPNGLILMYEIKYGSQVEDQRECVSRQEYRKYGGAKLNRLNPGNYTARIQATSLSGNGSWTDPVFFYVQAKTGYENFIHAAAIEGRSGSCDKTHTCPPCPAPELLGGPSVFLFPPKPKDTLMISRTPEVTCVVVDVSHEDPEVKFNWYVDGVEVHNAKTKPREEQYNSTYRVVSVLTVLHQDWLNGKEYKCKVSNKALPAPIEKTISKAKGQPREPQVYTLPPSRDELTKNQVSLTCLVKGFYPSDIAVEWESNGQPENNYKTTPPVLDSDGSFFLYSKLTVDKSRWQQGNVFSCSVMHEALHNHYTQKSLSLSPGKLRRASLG

Row | EC50 (read off the curve) [µg/mL] | binding result | Binder
11 | ~0.04 |  | B6
12 | ~0.1 |  | B7
13 |  | binds | B8

Biological target: T3, Cynomolgus macaque monkey IGF-1R-Fc …
Assay: binding ELISA: plate coated with recombinant cynomolgus macaque IGF-1R-Fc, antibody titrated, anti-human kappa light chain-HRP detection, OD 490nm
Method: as §3

Row | binding result | Binder
14 | binds | B9
15 | binds | B10
16 | binds | B11
17 | binds | B12

Biological target: T1, His-tagged FcγRIIIa (V variant) …
Assay: Biacore T100, His-tagged FcγRIIIa captured on anti-polyhistidine antibody, antibody injected 2-512 nM, 25°C, 1:1 model
Method: as §1, §2

Row | Kd [nM] | Binder
18 | 5.9 | B1
19 | 39.5 | B2
20 | 12.1 | B3
21 | 0.832 | B4
22 | 7.27 | B5

Biological target: T2, His-tagged FcγRIIIa (F variant) …
Assay: as above
Method: as §1, §2

Row | Kd [nM] | Binder
23 | 20.7 | B1
24 | 59.6 | B3
25 | 1.11 | B4
26 | 14.9 | B5
